Among the data in publication PMC9814550, “Exo-selective intermolecular Diels–Alder reaction by PyrI4 and AbnU on non-natural substrates” (Communications Chemistry, 2021) are Km and kcat values, retold here.

Test in all cases: intermolecular Diels-Alder kinetics
Substrate in series [1]: C=C/C=C/NC(=O)OCc1ccc(C(=O)OC)cc1
Format: biochemical, Parafrankia colletiae. The following applies: co-substrate 2, PBS pH 7.4, 37 °C. An excerpt: intermolecular Diels-Alder kinetics on AbnU

Substrate in series [2]: C=C/C=C/NC(=O)OCc1ccc(C(=O)OC)cc1
Format: biochemical, Streptomyces rugosporus. The following applies: co-substrate 2, PBS pH 7.4, 37 °C. An excerpt: (§1) intermolecular Diels-Alder kinetics on PyrI4

Substrate in series [3]: C=CC(=O)N(C)C
It counts as biochemical, Streptomyces rugosporus. The following applies: co-substrate 1a, PBS pH 7.4, 37 °C.
Source text: as §1

B1: AbnU (Parafrankia colletiae) (protein)
chain: MSVVHEGIWEPQIRNEQNVNVADPQVGQIGSYYDELYDSSRELLGITIGRYEIRYKKVGGAVLTYYSEDLFLRDGIIHAEGWADFNDVKNGVWVGYPAVGLDGVYRGLDGRREWRVIEPDQPVEARISLHG
notes: N-terminal poly-His tag, pET28a(+), codon-optimised synthetic gene, E. coli; dimer
On to B1, for which, in series [1], the Km was 200 ± 10 µM and the kcat came out at 1.17e-05 ± 2.8e-07 s⁻¹.

B2: PyrI4 (Streptomyces rugosporus) (protein)
chain: MTTPQIDERAMEAGAAALQETIVDPGPLDVTALAVAAALAAGLHSAADDPAAALDKCIVLDELTEFAEKLVVHDRPGGIGTTVEYVEVYEDASGVRLGTATGNAVVLKMEPHMWQFHQSVSELADGSFEAVGVIDCTAMLRRMTQVLRVTGRSGRYAGKSGFMTLAISDPNQRPPHYSVQVVLC
notes: full length, N-terminal poly-His tag, pET28a(+), codon-optimised synthetic gene, E. coli
With B2, the Km in series [2] stood at 200 ± 10 µM; in series [3], 100000 ± 1250 µM. The kcat in series [2] and in series [3] was 6.39e-06 ± 5.6e-07 s⁻¹ in each case.

As a reminder, the Km is the concentration of substrate that gives half-maximal velocity. Usually kcat stands for the maximal rate divided by the concentration of active sites.
